Sequences and labels used below:
B1: FD 11A (antibody, V domains shown)
VH: EVQLVESGGGVVQPGRSLRLSCAASGFTFSSYGMHWVRQAPGKGLEWVAVIWYDGSNKYYADSVKGRFTISRDNSKNTLYLQMNSLRAEDTAVYYCAKGPDILTGYYNYYYYGMDVWGQGTMVTVSS
VL: QSVLTQPPSVSGAPGQRVTISCTGSSSNIGAGYDVHWYQQLPGTAPKLLIYGNSNRPSGVPDRFSGSKSGTSASLAITGLQAEDEADYYCQSYDSSLSGFYVVFGGGTKLTVL
B2: FI 1C (antibody, V domains shown)
VH: EVQLVESGGGLVKPGGSLRLSCAASGFTFSDYYMSWIRQAPGKGLEWVSYISSSGSTIYYADSVKGRFTISRDNAKNSLYLQMNSLRAEDTAVYYCARRSNRFLIAFDIWGQGTMVTVSS
VL: QSALTQPASVSGSPGQTITISCTGTSSDVGGYNYVSWYQQHPGKAPKLMIYEVSNRPSGVSNRFSGSKSGNTASLTISGLQAEDEADYYCSSYTSSSTLVVFGGGTKLTVP
B3: FD 5D (antibody, V domains shown)
VH: EVQLVESGGGLVQPGGSLRLSCAASGFTFSSYSMNWVRQAPGKGLEWVSYISSSSSTIYYADPVKGRFTISRDNAKNSLYLQMNSLRAEDTAVYYCASPGGITAAGTSVLFGYYGMDVWGQGTMVTVSS
VL: not shown
B4: FI 3A (antibody, V domains shown)
VH: EVQLLESGGGLIQPGGSLRLSCAASGFTVSSNYMSWVRQAPGKGLEWVSVIYSGGSTYYADSVKGRFTISRDNSKNTLYLQMNSLRAEDTAVYYCARDHVRPGMNIWGQGTMVTVSS
VL: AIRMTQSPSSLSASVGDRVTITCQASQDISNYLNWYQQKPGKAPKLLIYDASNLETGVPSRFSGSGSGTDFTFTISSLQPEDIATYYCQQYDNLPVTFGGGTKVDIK
B5: EY 6A (antibody, V domains shown)
VH: EVQLVESGGGVVQPGRSLRLSCAASAFTFSSYDMHWVRQAPGKGLEWVAVISYDGSNKYYADSVKGRFTISRDNSKNTLYLQMNSLRAEDTAVYYCAKDGGKLWVYYFDYWGQGTLVTVSS
VL: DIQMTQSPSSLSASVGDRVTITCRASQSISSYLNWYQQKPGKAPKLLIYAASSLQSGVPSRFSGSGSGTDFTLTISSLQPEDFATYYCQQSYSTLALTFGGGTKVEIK

In one test the target is RBD-6H (340-538; NITN.GPKK), biotinylated (SARS-CoV-2).
Assay: not given
The term IC50 denotes the concentration that inhibits the measured activity by half. As to B1, the IC50 was 164 nM. The same measure, in the same setting: the value for B2 was 109 nM; that for B3 was 34 nM. The same measure, in the same setting: under B4 stands 8 nM; under B5, 189 nM.

Another test addresses RBD-VLP (Spycatcher-mi3 VLP-particles conjugated with Spytagged-RBD recombinant protein) (SARS-CoV-2). The experiment in a line: ELISA. Background: In an ELISA, binding on a coated surface is turned into a signal by an enzyme label.
Regarding B2, the IC50 was 3 nM. As to B4, the IC50 was determined as 3 nM.

These data come from paper PMC8130932 (2021).
